This data set concerns LeuO (Escherichia coli (ASKA library overexpression strain)). The experiment in a line: EMSA.

Substance leuLABCD promoter region EMSA probe returned a K half of 25 nM.

(Values after publication doi:10.1101/2025.02.24.639830.)
